Measured values: US20220024981A1 (Novartis, published 2022)
Bridge positions count the residues as written; N and C are the ends. Square brackets hold non-standard residues; d marks the D form. Bip = N[C@@H](Cc1ccc(-c2ccccc2)cc1)C(=O)O; Phe(4-Cl) = N[C@@H](Cc1ccc(Cl)cc1)C(=O)O; NMeF = CN[C@@H](Cc1ccccc1)C(=O)O; NMeE = CN[C@@H](CCC(=O)O)C(=O)O; hSer = N[C@@H](CCO)C(=O)O; NMeA = CN[C@@H](C)C(=O)O

Biological target: T1, Human PCSK9 Alexa Fluor 647 (human, UniProt Q8NBP7 31-692, limits assumed, Alexa Fluor 647 label (site not stated))
T1 construct: Labelled tracer of the TR-FRET assay, 16 nM stock; also called proprotein convertase subtilisin/kexin type 9
T1 sequence (Q8NBP7 31-692 limits assumed): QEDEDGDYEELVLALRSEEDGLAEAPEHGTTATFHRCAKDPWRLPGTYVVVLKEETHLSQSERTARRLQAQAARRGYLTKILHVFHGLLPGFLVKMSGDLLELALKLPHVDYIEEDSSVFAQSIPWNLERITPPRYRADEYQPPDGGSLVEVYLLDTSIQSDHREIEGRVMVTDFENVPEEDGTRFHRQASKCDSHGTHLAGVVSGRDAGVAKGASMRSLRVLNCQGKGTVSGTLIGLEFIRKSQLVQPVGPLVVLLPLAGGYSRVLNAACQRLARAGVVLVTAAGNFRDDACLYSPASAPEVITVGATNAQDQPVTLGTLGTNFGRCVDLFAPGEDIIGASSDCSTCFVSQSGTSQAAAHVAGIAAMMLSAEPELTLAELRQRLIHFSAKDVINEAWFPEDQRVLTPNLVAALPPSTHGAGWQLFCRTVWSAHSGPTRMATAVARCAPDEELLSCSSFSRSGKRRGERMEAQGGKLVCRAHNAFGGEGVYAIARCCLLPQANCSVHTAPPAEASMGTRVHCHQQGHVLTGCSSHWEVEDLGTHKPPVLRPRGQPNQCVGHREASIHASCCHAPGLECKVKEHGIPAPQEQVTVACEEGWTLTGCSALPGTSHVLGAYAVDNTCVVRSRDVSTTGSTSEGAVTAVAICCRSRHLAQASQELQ
Assay: TR-FRET competition: PCSK9-Alexa Fluor 647 vs LDLR ECD-Eu kryptate
Description: A Proxi plate-low volume assay plate was used for the assay. […] Following a 30 minute incubation, 5 uL of 4 nM Human LDLR extracellular domain-Europium Kryptate was added and the mixture was incubated for an additional 2 hours.
The TR-FRET signal was measured on an EnVision or PheraStar instrument with a 60 μs delay, 330 nm excitation and 665 nm emission (FRET), and 330 nm excitation and 615 nm (Europium). The FRET ratio (FRET/Europium) was used for calculations.

Row | Binder | IC50 [nM] | Maximum % inhibition [%]
1 | {CH2CO}-FVATTF[NMeA][Bip][NMeA]KAPCG-NH2 (thioether N-13; SMILES CC(C)[C@@H]1NC(=O)[C@H](Cc2ccccc2)NC(=O)CSC[C@@H](C(=O)NCC(N)=O)NC(=O)[C@@H]2CCCN2C(=O)[C@H](C)NC(=O)[C@H](CCCCN)NC(=O)[C@H](C)N(C)C(=O)[C@H](Cc2ccc(-c3ccccc3)cc2)NC(=O)[C@H](C)N(C)C(=O)[C@H](Cc2ccccc2)NC(=O)[C@H]([C@@H](C)O)NC(=O)[C@H]([C@@H](C)O)NC(=O)[C@H](C)NC1=O, also called 1-22; Ex. No. 1-22) [Ac*-F-V-A-T-T-F-(N-Me)A-B-(N-Me)A-K-A-P-C*-G-NH2] | 12 | 49
2 | {CH2CO}-FVNTTF[NMeA][Bip][NMeA]KAPCG-NH2 (thioether N-13; SMILES CC(C)[C@@H]1NC(=O)[C@H](Cc2ccccc2)NC(=O)CSC[C@@H](C(=O)NCC(N)=O)NC(=O)[C@@H]2CCCN2C(=O)[C@H](C)NC(=O)[C@H](CCCCN)NC(=O)[C@H](C)N(C)C(=O)[C@H](Cc2ccc(-c3ccccc3)cc2)NC(=O)[C@H](C)N(C)C(=O)[C@H](Cc2ccccc2)NC(=O)[C@H]([C@@H](C)O)NC(=O)[C@H]([C@@H](C)O)NC(=O)[C@H](CC(N)=O)NC1=O, also called 1-23; Ex. No. 1-23) [Ac*-F-V-N-T-T-F-(N-Me)A-B-(N-Me)A-K-A-P-C*-G-NH2] | 22 | 36
3 | {CH2CO}-FVDTTF[NMeA][Bip][NMeA]ESPCG-NH2 (thioether N-13; SMILES CC(C)[C@@H]1NC(=O)[C@H](Cc2ccccc2)NC(=O)CSC[C@@H](C(=O)NCC(N)=O)NC(=O)[C@@H]2CCCN2C(=O)[C@H](CO)NC(=O)[C@H](CCC(=O)O)NC(=O)[C@H](C)N(C)C(=O)[C@H](Cc2ccc(-c3ccccc3)cc2)NC(=O)[C@H](C)N(C)C(=O)[C@H](Cc2ccccc2)NC(=O)[C@H]([C@@H](C)O)NC(=O)[C@H]([C@@H](C)O)NC(=O)[C@H](CC(=O)O)NC1=O, also called 1-17; Ex. No. 1-17) [Ac*-F-V-D-T-T-F-(N-Me)A-B-(N-Me)A-E-S-P-C*-G-NH2] | 17 | 91
4 | {CH2CO}-FENTTF[NMeA][Bip][NMeA]ASPCG-NH2 (thioether N-13; SMILES C[C@@H]1NC(=O)[C@H](C)N(C)C(=O)[C@H](Cc2ccc(-c3ccccc3)cc2)NC(=O)[C@H](C)N(C)C(=O)[C@H](Cc2ccccc2)NC(=O)[C@H]([C@@H](C)O)NC(=O)[C@H]([C@@H](C)O)NC(=O)[C@H](CC(N)=O)NC(=O)[C@H](CCC(=O)O)NC(=O)[C@H](Cc2ccccc2)NC(=O)CSC[C@@H](C(=O)NCC(N)=O)NC(=O)[C@@H]2CCCN2C(=O)[C@H](CO)NC1=O, also called 1-27; Ex. No. 1-27) [Ac*-F-E-N-T-T-F-(N-Me)A-B-(N-Me)A-A-S-P-C*-G-NH2] | 410 | 55
5 | {CH2CO}-FVPTTF[NMeA][Bip][NMeA]EAPC-NHEt (thioether N-13; SMILES CCNC(=O)[C@@H]1CSCC(=O)N[C@@H](Cc2ccccc2)C(=O)N[C@@H](C(C)C)C(=O)N2CCC[C@H]2C(=O)N[C@@H]([C@@H](C)O)C(=O)N[C@@H]([C@@H](C)O)C(=O)N[C@@H](Cc2ccccc2)C(=O)N(C)[C@@H](C)C(=O)N[C@@H](Cc2ccc(-c3ccccc3)cc2)C(=O)N(C)[C@@H](C)C(=O)N[C@@H](CCC(=O)O)C(=O)N[C@@H](C)C(=O)N2CCC[C@H]2C(=O)N1, also called 3-2; Ex. No. 3-2) [Ac*-F-V-P-T-T-F-(N-Me)A-B-(N-Me)A-E-A-P-C*-NHEt] | 4.2 | 83
6 | {CH2CO}-FVNTTF[NMeA][Bip][NMeA][NMeE]APC-NHEt (thioether N-13; SMILES CCNC(=O)[C@@H]1CSCC(=O)N[C@@H](Cc2ccccc2)C(=O)N[C@@H](C(C)C)C(=O)N[C@@H](CC(N)=O)C(=O)N[C@@H]([C@@H](C)O)C(=O)N[C@@H]([C@@H](C)O)C(=O)N[C@@H](Cc2ccccc2)C(=O)N(C)[C@@H](C)C(=O)N[C@@H](Cc2ccc(-c3ccccc3)cc2)C(=O)N(C)[C@@H](C)C(=O)N(C)[C@@H](CCC(=O)O)C(=O)N[C@@H](C)C(=O)N2CCC[C@H]2C(=O)N1, also called 3-1; Ex. No. 3-1) [Ac*-F-V-N-T-T-F-(N-Me)A-B-(N-Me)A-(N-Me)E-A-P-C*-NHEt] | 85 | 61
7 | {CH2CO}-FVDTTA[NMeF][Bip][NMeA]EAPCG-NH2 (thioether N-13; SMILES CC(C)[C@@H]1NC(=O)[C@H](Cc2ccccc2)NC(=O)CSC[C@@H](C(=O)NCC(N)=O)NC(=O)[C@@H]2CCCN2C(=O)[C@H](C)NC(=O)[C@H](CCC(=O)O)NC(=O)[C@H](C)N(C)C(=O)[C@H](Cc2ccc(-c3ccccc3)cc2)NC(=O)[C@H](Cc2ccccc2)N(C)C(=O)[C@H](C)NC(=O)[C@H]([C@@H](C)O)NC(=O)[C@H]([C@@H](C)O)NC(=O)[C@H](CC(=O)O)NC1=O, also called 1-16; Ex. No. 1-16) [Ac*-F-V-D-T-T-A-(N-Me)F-B-(N-Me)A-E-A-P-C*-G-NH2] | 7.4 | 91

Results, then the binder that gave them:

Row | IC50 [nM] | Maximum % inhibition [%] | Binder
8 | 2.2 | – | {CH2CO}-FVPTT[Bip][NMeA][Bip][NMeA]EAPC-NHEt (thioether N-13, also called 3-3; Ex. No. 3-3) [Ac*-F-V-P-T-T-B-(N-Me)A-B-(N-Me)A-E-A-P-C*-NHEt]
9 | 0.04 | 75 | {CH2CO}-FV[hSer]TTF[NMeA][Phe(4-Cl)][NMeA]DAPC-NH2 (thioether N-13; SMILES CC(C)[C@@H]1NC(=O)[C@H](Cc2ccccc2)NC(=O)CSC[C@@H](C(N)=O)NC(=O)[C@@H]2CCCN2C(=O)[C@H](C)NC(=O)[C@H](CC(=O)O)NC(=O)[C@H](C)N(C)C(=O)[C@H](Cc2ccc(Cl)cc2)NC(=O)[C@H](C)N(C)C(=O)[C@H](Cc2ccccc2)NC(=O)[C@H]([C@@H](C)O)NC(=O)[C@H]([C@@H](C)O)NC(=O)[C@H](CCO)NC1=O, also called 2-3; Ex. No. 2-3) [Ac*-F-V-HomoSer-T-T-F-(N-Me)A-(p-Cl)F-(N-Me)A-D-A-P-C*-NH2]
10 | 11 | 53 | {CH2CO}-FVNTTA[NMeF][Bip][NMeA]QAPCG-NH2 (thioether N-13; SMILES CC(C)[C@@H]1NC(=O)[C@H](Cc2ccccc2)NC(=O)CSC[C@@H](C(=O)NCC(N)=O)NC(=O)[C@@H]2CCCN2C(=O)[C@H](C)NC(=O)[C@H](CCC(N)=O)NC(=O)[C@H](C)N(C)C(=O)[C@H](Cc2ccc(-c3ccccc3)cc2)NC(=O)[C@H](Cc2ccccc2)N(C)C(=O)[C@H](C)NC(=O)[C@H]([C@@H](C)O)NC(=O)[C@H]([C@@H](C)O)NC(=O)[C@H](CC(N)=O)NC1=O, also called 1-18; Ex. No. 1-18) [Ac*-F-V-N-T-T-A-(N-Me)F-B-(N-Me)A-Q-A-P-C*-G-NH2]
11 | 1.1 | 46 | {CH2CO}-FVATTF[NMeA][Phe(4-Cl)][NMeA]NAPC-NH2 (thioether N-13; SMILES CC(C)[C@@H]1NC(=O)[C@H](Cc2ccccc2)NC(=O)CSC[C@@H](C(N)=O)NC(=O)[C@@H]2CCCN2C(=O)[C@H](C)NC(=O)[C@H](CC(N)=O)NC(=O)[C@H](C)N(C)C(=O)[C@H](Cc2ccc(Cl)cc2)NC(=O)[C@H](C)N(C)C(=O)[C@H](Cc2ccccc2)NC(=O)[C@H]([C@@H](C)O)NC(=O)[C@H]([C@@H](C)O)NC(=O)[C@H](C)NC1=O, also called 2-5; Ex. No. 2-5) [Ac*-F-V-A-T-T-F-(N-Me)A-(p-Cl)F-(N-Me)A-N-A-P-C*-NH2]
12 | 1.8 | 28 | {CH2CO}-FVSTT[Bip][NMeA][Bip][NMeA]DRPC-NH2 (thioether N-13; SMILES CC(C)[C@@H]1NC(=O)[C@H](Cc2ccccc2)NC(=O)CSC[C@@H](C(N)=O)NC(=O)[C@@H]2CCCN2C(=O)[C@H](CCCNC(=N)N)NC(=O)[C@H](CC(=O)O)NC(=O)[C@H](C)N(C)C(=O)[C@H](Cc2ccc(-c3ccccc3)cc2)NC(=O)[C@H](C)N(C)C(=O)[C@H](Cc2ccc(-c3ccccc3)cc2)NC(=O)[C@H]([C@@H](C)O)NC(=O)[C@H]([C@@H](C)O)NC(=O)[C@H](CO)NC1=O, also called 2-4; Ex. No. 2-4) [Ac*-F-V-S-T-T-B-(N-Me)A-B-(N-Me)A-D-R-P-C*-NH2]
13 | 6.8 | 70 | FVSTTFAXAEAPCG (not fully specified; N-terminal acetyl (Ac*) joined by a sulfide bond to the side chain of Cys13 (cyclic); 7: L-(N-Me)Ala; 8: L-Bip; 9: L-(N-Me)Ala; C-terminal amide (NH2), also called 1-24; Ex. No. 1-24) [Ac*-F-V-S-T-T-F-(N-Me)A-B-(N-Me)A-E-A-P-C*-G-NH2]
14 | 0.4 | 72 | {CH2CO}-FVPTTF[NMeA][Phe(4-Cl)][NMeA]DAPC-NH2 (thioether N-13; SMILES CC(C)[C@@H]1NC(=O)[C@H](Cc2ccccc2)NC(=O)CSC[C@@H](C(N)=O)NC(=O)[C@@H]2CCCN2C(=O)[C@H](C)NC(=O)[C@H](CC(=O)O)NC(=O)[C@H](C)N(C)C(=O)[C@H](Cc2ccc(Cl)cc2)NC(=O)[C@H](C)N(C)C(=O)[C@H](Cc2ccccc2)NC(=O)[C@H]([C@@H](C)O)NC(=O)[C@H]([C@@H](C)O)NC(=O)[C@@H]2CCCN2C1=O, also called 2-2; Ex. No. 2-2) [Ac*-F-V-P-T-T-F-(N-Me)A-(p-Cl)F-(N-Me)A-D-A-P-C*-NH2]
15 | 5.4 | 83 | {CH2CO}-FVPTTV[NMeA][Phe(4-Cl)][NMeA]EAPC-NH2 (thioether N-13; SMILES CC(C)[C@@H]1NC(=O)[C@H]([C@@H](C)O)NC(=O)[C@H]([C@@H](C)O)NC(=O)[C@@H]2CCCN2C(=O)[C@H](C(C)C)NC(=O)[C@H](Cc2ccccc2)NC(=O)CSC[C@@H](C(N)=O)NC(=O)[C@@H]2CCCN2C(=O)[C@H](C)NC(=O)[C@H](CCC(=O)O)NC(=O)[C@H](C)N(C)C(=O)[C@H](Cc2ccc(Cl)cc2)NC(=O)[C@H](C)N(C)C1=O, also called 2-6; Ex. No. 2-6) [Ac*-F-V-P-T-T-V-(N-Me)A-(p-Cl)F-(N-Me)A-E-A-P-C*-NH2]
16 | 11.5 | 50 | {CH2CO}-FVPTTF[NMeA][Phe(4-Cl)][NMeA]PAPC-NH2 (thioether N-13; SMILES CC(C)[C@@H]1NC(=O)[C@H](Cc2ccccc2)NC(=O)CSC[C@@H](C(N)=O)NC(=O)[C@@H]2CCCN2C(=O)[C@H](C)NC(=O)[C@@H]2CCCN2C(=O)[C@H](C)N(C)C(=O)[C@H](Cc2ccc(Cl)cc2)NC(=O)[C@H](C)N(C)C(=O)[C@H](Cc2ccccc2)NC(=O)[C@H]([C@@H](C)O)NC(=O)[C@H]([C@@H](C)O)NC(=O)[C@@H]2CCCN2C1=O, also called 2-1; Ex. No. 2-1) [Ac*-F-V-P-T-T-F-(N-Me)A-(p-Cl)F-(N-Me)A-P-A-P-C*-NH2]
17 | 7.2 | 81 | {CH2CO}-FVPTTA[NMeF][Bip][NMeA]EAPCG-NH2 (thioether N-13; not fully specified, The three-letter form of the same entry prints L-Arg at position 11 where the one-letter form prints A; also called 1-21; Ex. No. 1-21) [Ac*-F-V-P-T-T-A-(N-Me)F-B-(N-Me)A-E-A-P-C*-G-NH2]
